According to patent US20180155451A1 (published 2018):

T1: FcγRIIa R (human, UniProt P12318 34-217)
T1 construct: extracellular domain; also called FcgRIIa R; FcγRIIa type R
T1 sequence (looked up): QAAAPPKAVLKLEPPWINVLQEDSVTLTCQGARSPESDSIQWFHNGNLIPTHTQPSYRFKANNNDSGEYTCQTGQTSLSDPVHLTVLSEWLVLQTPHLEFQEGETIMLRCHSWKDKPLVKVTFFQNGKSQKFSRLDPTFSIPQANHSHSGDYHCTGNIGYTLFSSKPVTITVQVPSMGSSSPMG

T2: FcγRIIb (human, UniProt P31994 43-217)
T2 construct: extracellular domain; also called FcgRIIb
T2 sequence (looked up): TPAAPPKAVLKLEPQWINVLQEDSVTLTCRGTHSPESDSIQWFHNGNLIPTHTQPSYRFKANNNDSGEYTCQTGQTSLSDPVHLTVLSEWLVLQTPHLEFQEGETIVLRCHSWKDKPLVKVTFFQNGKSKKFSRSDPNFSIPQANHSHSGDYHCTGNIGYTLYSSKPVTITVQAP

T3: FcγRIIa R (human, UniProt P12318 34-217)
T3 construct: extracellular domain; Soluble extracellular domain with C-terminal His tag, expressed in FreeStyle293 cells; also called FcgRIIa R; FcγRIIa type R; not shown: His tag attached to the C terminus
T3 sequence (looked up): T1 sequence (looked up)

B1: GpH7-A5/GpH7-B3 variant P329_19Q/GpL16-k0 (antibody, human IgG1, kappa)
heavy 1: not shown
heavy 2: not shown
light: DIVMTQSPLSLPVTPGEPASISCQASESLVHSNRNTYLHWYLQKPGQSPQLLIYKVSNRFSGVPDRFSGSGSGTDFTLKISRVEAEDVGVYYCSQNTHVPPTFGQGTKVEIERTVAAPSVFIFPPSDEQLKSGTASVVCLLNNFYPREAKVQWKVDNALQSGNSQESVTEQDSKDSTYSLSSTLTLSKADYEKHKVYACEVTHQGLSSPVTKSFNRGEC
notes: He Ab; IgG1; mutation in one H chain only
B2: GpH7-B3 variant T335_15Y/GpL16-k0 (antibody, human IgG1, kappa)
heavy: not shown
light: B1 light
notes: homodimerized; mutation in both H chains; also called Ho Ab
B3: GpH7-B3 variant H268_18N/GpL16-k0 (antibody, human IgG1, kappa)
heavy: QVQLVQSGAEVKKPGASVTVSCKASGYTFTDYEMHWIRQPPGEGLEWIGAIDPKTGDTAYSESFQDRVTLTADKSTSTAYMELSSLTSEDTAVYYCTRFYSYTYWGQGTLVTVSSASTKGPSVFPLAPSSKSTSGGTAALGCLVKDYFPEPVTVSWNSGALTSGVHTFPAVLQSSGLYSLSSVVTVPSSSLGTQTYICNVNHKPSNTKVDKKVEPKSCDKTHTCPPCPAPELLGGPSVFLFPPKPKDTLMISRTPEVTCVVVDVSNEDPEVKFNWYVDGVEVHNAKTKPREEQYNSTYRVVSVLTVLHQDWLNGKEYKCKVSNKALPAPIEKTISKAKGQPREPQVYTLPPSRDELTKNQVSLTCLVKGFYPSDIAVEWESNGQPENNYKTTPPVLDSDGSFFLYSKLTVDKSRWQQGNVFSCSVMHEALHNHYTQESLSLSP
light: B1 light
notes: as for B2
B4: GpH7-B3 variant H268_10E/GpL16-k0 (antibody, human IgG1, kappa)
heavy: not shown
light: B1 light
notes: as for B2
B5: GpH7-B3 variant K334_14T/GpL16-k0 (antibody, human IgG1, kappa)
heavy: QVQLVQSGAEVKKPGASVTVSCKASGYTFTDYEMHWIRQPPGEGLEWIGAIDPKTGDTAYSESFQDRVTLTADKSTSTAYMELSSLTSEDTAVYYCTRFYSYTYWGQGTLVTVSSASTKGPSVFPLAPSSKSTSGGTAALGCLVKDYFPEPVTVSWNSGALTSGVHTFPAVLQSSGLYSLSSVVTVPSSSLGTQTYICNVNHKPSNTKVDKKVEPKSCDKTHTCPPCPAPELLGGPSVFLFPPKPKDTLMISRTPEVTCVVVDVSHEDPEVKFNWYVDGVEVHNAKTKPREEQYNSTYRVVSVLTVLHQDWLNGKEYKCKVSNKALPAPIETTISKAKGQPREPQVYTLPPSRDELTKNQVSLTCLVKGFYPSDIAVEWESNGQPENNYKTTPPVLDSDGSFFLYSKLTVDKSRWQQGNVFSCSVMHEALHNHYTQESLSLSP
light: B1 light
notes: as for B2
B6: GpH7-B3 variant I332_04F/GpL16-k0 (antibody, human IgG1, kappa)
heavy: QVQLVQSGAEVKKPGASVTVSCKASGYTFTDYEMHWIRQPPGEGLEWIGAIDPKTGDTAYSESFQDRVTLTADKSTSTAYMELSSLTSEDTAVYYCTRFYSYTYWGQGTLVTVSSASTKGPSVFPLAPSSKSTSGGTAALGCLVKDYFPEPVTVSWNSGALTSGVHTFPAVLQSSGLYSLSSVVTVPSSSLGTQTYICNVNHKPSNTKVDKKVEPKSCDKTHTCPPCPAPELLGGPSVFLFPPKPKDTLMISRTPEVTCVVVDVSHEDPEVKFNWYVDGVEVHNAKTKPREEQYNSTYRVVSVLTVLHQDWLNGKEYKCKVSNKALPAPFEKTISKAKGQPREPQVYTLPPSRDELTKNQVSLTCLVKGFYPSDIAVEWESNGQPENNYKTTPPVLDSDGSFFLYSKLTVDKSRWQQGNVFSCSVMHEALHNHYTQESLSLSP
light: B1 light
notes: as for B2
B7: GpH7-B3 variant K334_07I/GpL16-k0 (antibody, human IgG1, kappa)
heavy: not shown
light: B1 light
notes: as for B2
B8: GpH7-B3 variant K326_16H/GpL16-k0 (antibody, human IgG1, kappa)
heavy: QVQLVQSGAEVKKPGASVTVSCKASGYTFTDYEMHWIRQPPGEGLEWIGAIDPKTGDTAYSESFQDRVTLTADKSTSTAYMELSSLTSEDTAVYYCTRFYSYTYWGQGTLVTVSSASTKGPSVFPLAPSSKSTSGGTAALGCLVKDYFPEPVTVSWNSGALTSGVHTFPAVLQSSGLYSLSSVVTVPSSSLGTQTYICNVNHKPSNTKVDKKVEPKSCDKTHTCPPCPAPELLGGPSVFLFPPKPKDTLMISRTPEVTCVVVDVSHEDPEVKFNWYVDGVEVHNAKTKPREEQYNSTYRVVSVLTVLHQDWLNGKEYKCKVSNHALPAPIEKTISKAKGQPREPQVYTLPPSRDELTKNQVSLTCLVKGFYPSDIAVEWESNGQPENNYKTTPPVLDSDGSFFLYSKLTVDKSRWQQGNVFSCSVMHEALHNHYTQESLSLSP
light: B1 light
notes: as for B2
B9: GpH7-A5/GpH7-B3 variant Y300_05P/GpL16-k0 (antibody, human IgG1, kappa)
heavy 1: not shown
heavy 2: not shown
light: B1 light
notes: as for B1
B10: GpH7-B3 variant L328_04F/GpL16-k0 (antibody, human IgG1, kappa)
heavy: not shown
light: B1 light
notes: as for B2
B11: GpH7-A5/GpH7-B3 variant S298_20W/GpL16-k0 (antibody, human IgG1, kappa)
heavy 1: not shown
heavy 2: not shown
light: B1 light
notes: as for B1
B12: GpH7-A5/GpH7-B3 variant S298_11K/GpL16-k0 (antibody, human IgG1, kappa)
heavy 1: not shown
heavy 2: not shown
light: B1 light
notes: as for B1
B13: GpH7-B3 variant G236_10E/GpL16-k0 (antibody, human IgG1, kappa)
heavy: not shown
light: B1 light
notes: as for B2
B14: GpH7-A5/GpH7-B3 variant S298_18N/GpL16-k0 (antibody, human IgG1, kappa)
heavy 1: not shown
heavy 2: not shown
light: B1 light
notes: as for B1
B15: GpH7-A5/GpH7-B3 variant S298_19Q/GpL16-k0 (antibody, human IgG1, kappa)
heavy 1: not shown
heavy 2: not shown
light: B1 light
notes: as for B1
B16: GpH7-B3 variant K326_09D/GpL16-k0 (antibody, human IgG1, kappa)
heavy: not shown
light: B1 light
notes: as for B2
B17: GpH7-A5/GpH7-B3 variant S298_16H/GpL16-k0 (antibody, human IgG1, kappa)
heavy 1: not shown
heavy 2: not shown
light: B1 light
notes: as for B1
B18: GpH7-B3 variant K334_03V/GpL16-k0 (antibody, human IgG1, kappa)
heavy: not shown
light: B1 light
notes: as for B2
B19: GpH7-A5/GpH7-B3 variant Y300_18N/GpL16-k0 (antibody, human IgG1, kappa)
heavy 1: not shown
heavy 2: not shown
light: B1 light
notes: as for B1
B20: GpH7-B3 variant I332_10E/GpL16-k0 (antibody, human IgG1, kappa)
heavy: not shown
light: B1 light
notes: homodimerized; mutation in both H chains; also called Ho Ab; GpH7-B3-22-10E/GpL16-k0
B21: GpH7-A5/GpH7-B3 variant Y300_12R/GpL16-k0 (antibody, human IgG1, kappa)
heavy 1: not shown
heavy 2: not shown
light: B1 light
notes: as for B1
B22: GpH7-B3 variant K334_15Y/GpL16-k0 (antibody, human IgG1, kappa)
heavy: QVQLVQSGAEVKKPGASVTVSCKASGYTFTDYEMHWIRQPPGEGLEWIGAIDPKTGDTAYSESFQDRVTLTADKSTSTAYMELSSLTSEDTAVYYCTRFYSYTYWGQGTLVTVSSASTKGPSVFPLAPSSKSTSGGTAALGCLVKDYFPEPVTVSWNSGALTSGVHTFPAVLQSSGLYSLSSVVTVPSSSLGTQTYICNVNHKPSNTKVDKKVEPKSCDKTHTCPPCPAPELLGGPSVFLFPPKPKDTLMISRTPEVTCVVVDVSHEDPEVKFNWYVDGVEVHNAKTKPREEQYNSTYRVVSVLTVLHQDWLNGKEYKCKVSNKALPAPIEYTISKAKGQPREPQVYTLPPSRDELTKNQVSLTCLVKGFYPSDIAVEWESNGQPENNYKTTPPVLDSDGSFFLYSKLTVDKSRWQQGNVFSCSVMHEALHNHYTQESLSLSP
light: B1 light
notes: as for B2
B23: GpH7-B3 variant L328_03V/GpL16-k0 (antibody, human IgG1, kappa)
heavy: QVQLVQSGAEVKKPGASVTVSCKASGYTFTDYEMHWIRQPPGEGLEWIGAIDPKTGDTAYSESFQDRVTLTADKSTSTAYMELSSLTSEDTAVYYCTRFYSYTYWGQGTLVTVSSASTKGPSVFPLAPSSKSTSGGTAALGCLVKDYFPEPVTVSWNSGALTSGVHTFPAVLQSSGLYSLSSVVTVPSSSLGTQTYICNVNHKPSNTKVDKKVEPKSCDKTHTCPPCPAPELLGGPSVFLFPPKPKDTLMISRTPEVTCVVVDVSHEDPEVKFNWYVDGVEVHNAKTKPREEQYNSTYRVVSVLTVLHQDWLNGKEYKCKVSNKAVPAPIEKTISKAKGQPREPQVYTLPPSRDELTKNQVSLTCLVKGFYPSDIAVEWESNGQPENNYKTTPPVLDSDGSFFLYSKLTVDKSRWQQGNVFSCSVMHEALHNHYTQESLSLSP
light: B1 light
notes: as for B2
B24: GpH7-B3 variant K334_16H/GpL16-k0 (antibody, human IgG1, kappa)
heavy: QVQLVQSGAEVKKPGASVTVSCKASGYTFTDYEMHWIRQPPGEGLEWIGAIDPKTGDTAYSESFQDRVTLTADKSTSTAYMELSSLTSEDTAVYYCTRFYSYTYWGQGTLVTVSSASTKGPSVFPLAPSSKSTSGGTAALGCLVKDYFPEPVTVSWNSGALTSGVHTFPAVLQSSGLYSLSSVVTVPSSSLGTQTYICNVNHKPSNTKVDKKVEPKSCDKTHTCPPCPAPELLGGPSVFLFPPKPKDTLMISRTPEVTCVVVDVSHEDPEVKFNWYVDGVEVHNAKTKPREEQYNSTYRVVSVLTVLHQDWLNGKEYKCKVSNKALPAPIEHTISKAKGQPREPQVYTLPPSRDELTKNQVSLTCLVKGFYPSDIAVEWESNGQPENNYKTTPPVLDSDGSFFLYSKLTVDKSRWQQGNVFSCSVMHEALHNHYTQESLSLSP
light: B1 light
notes: as for B2
B25: GpH7-B3 variant K326_14T/GpL16-k0 (antibody, human IgG1, kappa)
heavy: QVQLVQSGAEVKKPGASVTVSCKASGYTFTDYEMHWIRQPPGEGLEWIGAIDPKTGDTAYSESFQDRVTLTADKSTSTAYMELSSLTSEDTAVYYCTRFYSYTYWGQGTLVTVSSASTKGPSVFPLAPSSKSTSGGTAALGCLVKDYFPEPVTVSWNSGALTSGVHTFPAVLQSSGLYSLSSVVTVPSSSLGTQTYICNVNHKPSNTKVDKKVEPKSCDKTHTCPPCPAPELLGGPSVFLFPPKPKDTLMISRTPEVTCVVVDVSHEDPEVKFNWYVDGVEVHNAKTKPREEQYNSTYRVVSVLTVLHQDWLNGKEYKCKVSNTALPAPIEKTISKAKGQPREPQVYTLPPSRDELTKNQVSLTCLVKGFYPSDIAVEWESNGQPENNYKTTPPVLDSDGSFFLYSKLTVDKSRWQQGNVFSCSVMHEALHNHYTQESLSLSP
light: B1 light
notes: as for B2
B26: GpH7-B3 variant K334_18N/GpL16-k0 (antibody, human IgG1, kappa)
heavy: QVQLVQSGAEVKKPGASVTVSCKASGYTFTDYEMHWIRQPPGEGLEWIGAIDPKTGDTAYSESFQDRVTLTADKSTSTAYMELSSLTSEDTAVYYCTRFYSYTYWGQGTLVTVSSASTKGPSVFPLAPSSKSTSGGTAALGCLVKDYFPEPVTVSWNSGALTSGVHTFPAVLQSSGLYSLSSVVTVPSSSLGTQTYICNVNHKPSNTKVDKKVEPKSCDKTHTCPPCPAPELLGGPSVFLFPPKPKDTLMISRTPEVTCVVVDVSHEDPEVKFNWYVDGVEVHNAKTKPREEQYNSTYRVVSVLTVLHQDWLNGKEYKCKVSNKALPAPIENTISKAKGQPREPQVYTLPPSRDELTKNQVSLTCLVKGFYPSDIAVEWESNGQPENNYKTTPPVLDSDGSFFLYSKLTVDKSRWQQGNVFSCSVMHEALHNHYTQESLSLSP
light: B1 light
notes: as for B2
B27: GpH7-B3 variant H268_13S/GpL16-k0 (antibody, human IgG1, kappa)
heavy: not shown
light: B1 light
notes: as for B2
B28: GpH7-B3 variant K326_19Q/GpL16-k0 (antibody, human IgG1, kappa)
heavy: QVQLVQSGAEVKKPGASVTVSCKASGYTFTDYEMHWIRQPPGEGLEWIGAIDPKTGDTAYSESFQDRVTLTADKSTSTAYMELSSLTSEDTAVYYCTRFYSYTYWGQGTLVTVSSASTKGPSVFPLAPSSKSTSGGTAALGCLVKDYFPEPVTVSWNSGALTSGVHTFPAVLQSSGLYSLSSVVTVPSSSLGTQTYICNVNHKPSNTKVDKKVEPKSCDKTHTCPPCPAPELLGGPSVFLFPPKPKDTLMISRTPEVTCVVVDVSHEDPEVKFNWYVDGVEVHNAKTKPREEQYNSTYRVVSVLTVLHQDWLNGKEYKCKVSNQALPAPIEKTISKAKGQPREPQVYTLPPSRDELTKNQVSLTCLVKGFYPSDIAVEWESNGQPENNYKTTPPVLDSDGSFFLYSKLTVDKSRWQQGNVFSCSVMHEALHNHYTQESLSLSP
light: B1 light
notes: as for B2
B29: GpH7-B3 variant G236_09D/GpL16-k0 (antibody, human IgG1, kappa)
heavy: not shown
light: B1 light
notes: as for B2
B30: GpH7-B3 variant I332_15Y/GpL16-k0 (antibody, human IgG1, kappa)
heavy: not shown
light: B1 light
notes: as for B2
B31: GpH7-A5/GpH7-B3 variant S298_10E/GpL16-k0 (antibody, human IgG1, kappa)
heavy 1: not shown
heavy 2: not shown
light: B1 light
notes: as for B1
B32: GpH7-A5/GpH7-B3 variant S298_14T/GpL16-k0 (antibody, human IgG1, kappa)
heavy 1: not shown
heavy 2: not shown
light: B1 light
notes: as for B1
B33: GpH7-B3 variant I332_09D/GpL16-k0 (antibody, human IgG1, kappa)
heavy: not shown
light: B1 light
notes: as for B2
B34: GpH7-A5/GpH7-B3 variant P331_01G/GpL16-k0 (antibody, human IgG1, kappa)
heavy 1: not shown
heavy 2: not shown
light: B1 light
notes: as for B1
B35: GpH7-B3 variant H268_09D/GpL16-k0 (antibody, human IgG1, kappa)
heavy: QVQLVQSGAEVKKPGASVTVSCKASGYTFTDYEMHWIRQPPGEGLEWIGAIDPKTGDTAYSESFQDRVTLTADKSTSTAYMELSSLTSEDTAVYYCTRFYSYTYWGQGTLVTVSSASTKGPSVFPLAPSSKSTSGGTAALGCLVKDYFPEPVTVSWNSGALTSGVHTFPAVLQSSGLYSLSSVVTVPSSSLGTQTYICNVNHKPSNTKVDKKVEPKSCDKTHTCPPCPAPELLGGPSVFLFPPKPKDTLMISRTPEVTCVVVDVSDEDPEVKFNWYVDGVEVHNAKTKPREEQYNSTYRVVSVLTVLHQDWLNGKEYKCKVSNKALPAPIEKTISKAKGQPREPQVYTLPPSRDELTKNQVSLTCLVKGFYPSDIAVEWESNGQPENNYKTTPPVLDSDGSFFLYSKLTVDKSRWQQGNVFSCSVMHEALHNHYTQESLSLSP
light: B1 light
notes: as for B2
B36: GpH7-A5/GpH7-B3 variant S298_12R/GpL16-k0 (antibody, human IgG1, kappa)
heavy 1: not shown
heavy 2: not shown
light: B1 light
notes: as for B1
B37: GpH7-B3 variant K326_06M/GpL16-k0 (antibody, human IgG1, kappa)
heavy: not shown
light: B1 light
notes: as for B2
B38: GpH7-B3 variant K326_10E/GpL16-k0 (antibody, human IgG1, kappa)
heavy: not shown
light: B1 light
notes: as for B2
B39: GpH7-A5/GpH7-B3 variant S298_15Y/GpL16-k0 (antibody, human IgG1, kappa)
heavy 1: not shown
heavy 2: not shown
light: B1 light
notes: as for B1

Experiments:
FcγRIIa R [1] = molecular target: T1, FcγRIIa R; assay: He/Con_2aR divided by He/Con_2b (FcγRIIa R over FcγRIIb); SPR (Biacore)
FcγRIIa R [2] = molecular target: T1, FcγRIIa R; assay: SPR (Biacore), captured antibody, FcγR analyte; binding relative to GpH7-A5/GpH7-B3/GpL16-k0 = 100
FcγRIIb = molecular target: T2, FcγRIIb; assay: as above
FcγRIIa R [3] = molecular target: T3, FcγRIIa R; assay: SPR (Biacore), antibody captured via antigen peptide, FcγRIIa R as analyte; homodimerized antibody
Procedure: Analysis of interaction between objective antibody and the FcγR was carried out using Biacore T100 (GE Healthcare). HBS-EP+ (GE Healthcare) was used as the running buffer, and the measurement temperature was set to 25° C. Chips produced by immobilizing the antigen peptide by the amine coupling method to a Series S Sencor Chip CM5 (GE Healthcare), or alternatively, chips produced by allowing preliminarily biotinylated antigen peptides to interact with and immobilize onto a Series S Sensor Chip SA (certified) (GE Healthcare) were used. Antibodies of interest were captured onto an antigen peptide-immobilized chip, and allowed to interact to each FcγR diluted with running buffer. To regenerate and repeatedly use the chip, the antibodies captured on the chip were washed off by reacting 10 mM glycine-HCl, pH 1.5.

Binder | IIaR/IIb (He_2aR/2b) (FcγRIIa R [1]) [ratio] | He/Con_2aR (IIaR binding) (FcγRIIa R [2]) [control=100] | He/Con_2b (IIb binding) (FcγRIIb) [control=100] | Ho/Con_2aR (FcγRIIa R [3])
B1 | 1.34 | 41.1 | 30.7 | 
B2 |  |  |  | 107 % of control (GpH7-B3/GpL16-k0 = 100)
B3 |  |  |  | 134 % of control (GpH7-B3/GpL16-k0 = 100)
B4 |  |  |  | 154 % of control (GpH7-B3/GpL16-k0 = 100)
B5 |  |  |  | 117 % of control (GpH7-B3/GpL16-k0 = 100)
B6 |  |  |  | 109 % of control (GpH7-B3/GpL16-k0 = 100)
B7 |  |  |  | 121 % of control (GpH7-B3/GpL16-k0 = 100)
B8 |  |  |  | 123 % of control (GpH7-B3/GpL16-k0 = 100)
B9 | 1.47 | 10.8 | 7.3 | 
B10 |  |  |  | 145 % of control (GpH7-B3/GpL16-k0 = 100)
B11 | 1.35 | 55.4 | 41.1 | 
B12 | 1.55 | 95.1 | 61.3 | 
B13 |  |  |  | 140 % of control (GpH7-B3/GpL16-k0 = 100)
B14 | 1.41 | 68 | 48.1 | 
B15 | 1.3 | 95 | 73.3 | 
B16 |  |  |  | 158 % of control (GpH7-B3/GpL16-k0 = 100)
B17 | 1.39 | 88.5 | 63.5 | 
B18 |  |  |  | 123 % of control (GpH7-B3/GpL16-k0 = 100)
B19 | 1.21 | 100 | 82.7 | 
B20 |  |  |  | 123 % of control (GpH7-B3/GpL16-k0 = 100)

Binder | IIaR/IIb (He_2aR/2b) (FcγRIIa R [1]) [ratio] | He/Con_2aR (IIaR binding) (FcγRIIa R [2]) [control=100] | He/Con_2b (IIb binding) (FcγRIIb) [control=100] | Ho/Con_2aR (FcγRIIa R [3])
B21 | 1.34 | 55.1 | 41.2 | 
B22 |  |  |  | 112 % of control (GpH7-B3/GpL16-k0 = 100)
B23 |  |  |  | 116 % of control (GpH7-B3/GpL16-k0 = 100)
B24 |  |  |  | 111 % of control (GpH7-B3/GpL16-k0 = 100)
B25 |  |  |  | 141 % of control (GpH7-B3/GpL16-k0 = 100)
B26 |  |  |  | 113 % of control (GpH7-B3/GpL16-k0 = 100)
B27 |  |  |  | 135 % of control (GpH7-B3/GpL16-k0 = 100)
B28 |  |  |  | 137 % of control (GpH7-B3/GpL16-k0 = 100)
B29 |  |  |  | 107 % of control (GpH7-B3/GpL16-k0 = 100)
B30 |  |  |  | 111 % of control (GpH7-B3/GpL16-k0 = 100)
B31 | 1.37 | 65.1 | 47.6 | 
B32 | 1.26 | 98.5 | 77.9 | 
B33 |  |  |  | 127 % of control (GpH7-B3/GpL16-k0 = 100)
B34 | 1.34 | 61 | 45.4 | 
B35 |  |  |  | 157 % of control (GpH7-B3/GpL16-k0 = 100)
B36 | 1.48 | 85.3 | 57.8 | 
B37 |  |  |  | 143 % of control (GpH7-B3/GpL16-k0 = 100)
B38 |  |  |  | 156 % of control (GpH7-B3/GpL16-k0 = 100)
B39 | 1.29 | 79.1 | 61.4 | 
